Numbering of substitutions follows the chain as printed. In names and notes the source's numbering stands.
B1: Drg1 (wild type, S. cerevisiae) (enzyme, UniProt P32794 1-780, looked up)
chain: MAPKSSSSGSKKKSSASSNSADAKASKFKLPAEFITRPHPSKDHGKETCTAYIHPNVLSSLEINPGSFCTVGKIGENGILVIARAGDEEVHPVNVITLSTTIRSVGNLILGDRLELKKAQVQPPYATKVTVGSLQGYNILECMEEKVIQKLLDDSGVIMPGMIFQNLKTKAGDESIDVVITDASDDSLPDVSQLDLNMDDMYGGLDNLFYLSPPFIFRKGSTHITFSKETQANRKYNLPEPLSYAAVGGLDKEIESLKSAIEIPLHQPTLFSSFGVSPPRGILLHGPPGTGKTMLLRVVANTSNAHVLTINGPSIVSKYLGETEAALRDIFNEARKYQPSIIFIDEIDSIAPNRANDDSGEVESRVVATLLTLMDGMGAAGKVVVIAATNRPNSVDPALRRPGRFDQEVEIGIPDVDARFDILTKQFSRMSSDRHVLDSEAIKYIASKTHGYVGADLTALCRESVMKTIQRGLGTDANIDKFSLKVTLKDVESAMVDIRPSAMREIFLEMPKVYWSDIGGQEELKTKMKEMIQLPLEASETFARLGISAPKGVLLYGPPGCSKTLTAKALATESGINFLAVKGPEIFNKYVGESERAIREIFRKARSAAPSIIFFDEIDALSPDRDGSSTSAANHVLTSLLNEIDGVEELKGVVIVAATNRPDEIDAALLRPGRLDRHIYVGPPDVNARLEILKKCTKKFNTEESGVDLHELADRTEGYSGAEVVLLCQEAGLAAIMEDLDVAKVELRHFEKAFKGIARGITPEMLSYYEEFALRSGSSS
notes: Drg1, type II AAA+ ATPase encoded by AFG2, S. cerevisiae (genome of strain BY4741), full length; Hexamers assembled in vitro with ADP, AMPPNP, ADP/AMPPNP/benzo-diazaborine or ATP/benzo-diazaborine; stabilised by GraFix (glutaraldehyde) for cryo-EM; also called Drg1^WT; Drg1 hexamer; source: E. coli Transetta (DE3), purified (Ni-NTA, TEV cleavage, Mono Q, size-exclusion chromatography); not shown: …
B2: Drg1 E346Q/E617Q double mutant (Walker B motifs of D1 and D2) (enzyme, S. cerevisiae, UniProt P32794 1-780, looked up)
chain: B1 chain with E346Q, E617Q
notes: Drg1, type II AAA+ ATPase encoded by AFG2, S. cerevisiae, full length, with the Walker B mutations E346Q and E617Q; Incubated with 5 mM ATP before size-exclusion chromatography; the atomic model covers residues 29 to 777; also called mutant Drg1; double mutant Drg1; source: E. coli Transetta (DE3), purified (Ni-NTA, TEV cleavage, Mono Q, size-exclusion chromatography); not shown: His6, …

How the values were obtained:
[1] = target: the molecule itself; experiment: negative-staining electron microscopy; Drg1 hexamers assembled in vitro with ADP, AMPPNP, ADP/AMPPNP/benzo-diazaborine or ATP/benzo-diazaborine; 0.02 mg/mL, 2% uranyl acetate, carbon-coated copper grids
[2] = target: the molecule itself; experiment: cryo-EM structure; Drg1 E346Q/E617Q with ATP; GraFix (glycerol gradient with 0-0.05% glutaraldehyde); 50 mM HEPES-KOH pH 6.8, 150 mM KCl, 5 mM MgCl2, 1 mM DTT, 1 mM nucleotide; protomer with protomer in the hexamer

Row | Protein | stoichiometry N [1] | stoichiometry N [2]
1 | B1 | 6 | –
2 | B2 | – | 6
